These results are taken from PMC11112410 (Frontiers in Immunology, 2024).

Experiment [1] deals with T1, recombinant Car b 1.0109 (hornbeam) (Carpinus betulus, isoallergen Car b …, UniProt B6RQR6, strain).
T1 construct: hornbeam pollen allergen Car b 1, isoallergen Car b 1.0109; source: recombinant; provided by Prof; Barbara Bohle (IPA, MUV)
Kind of experiment: ELISA; recombinant allergens or unrelated antigens (2 µg/ml in bicarbonate buffer) coated on the plate; nanobodies 2 µg/ml (Figure 2A) or 1 µg/ml (Figures 2B-C) in 0.1% BSA in PBST, overnight at 4°C; detected with HRP-labelled anti-HA-tag antibody. The following applies: both partners purified. Background: In an ELISA, binding on a coated surface is turned into a signal by an enzyme label.

Experiment [2] addresses T2, recombinant Phl p 5.0101 (timothy grass) (timothy grass).
T2 construct: timothy grass pollen allergen Phl p 5, isoallergen Phl p 5.0101; also called major grass pollen allergen; source: bought: Biomay AG (recombinant)
T2 chain: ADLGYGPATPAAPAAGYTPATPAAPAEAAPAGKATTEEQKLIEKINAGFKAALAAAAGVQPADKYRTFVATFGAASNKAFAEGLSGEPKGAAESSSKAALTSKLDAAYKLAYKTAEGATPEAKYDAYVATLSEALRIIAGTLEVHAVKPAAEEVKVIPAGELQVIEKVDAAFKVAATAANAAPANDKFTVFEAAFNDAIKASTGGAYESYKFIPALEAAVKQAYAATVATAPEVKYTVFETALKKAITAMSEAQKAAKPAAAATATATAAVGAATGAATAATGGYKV
The experiment is described as above. The following applies: both partners purified.

Experiment [3] deals with T3, recombinant Aln g 1.0101 (alder) (alder).
T3 construct: alder pollen allergen Aln g 1, isoallergen Aln g 1.0101; source: bought: Biomay AG (recombinant)
T3 chain: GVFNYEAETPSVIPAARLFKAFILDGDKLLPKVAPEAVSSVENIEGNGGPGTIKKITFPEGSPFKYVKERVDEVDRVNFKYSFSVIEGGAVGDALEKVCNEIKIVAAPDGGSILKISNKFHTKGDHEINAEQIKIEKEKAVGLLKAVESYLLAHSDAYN
Kind of experiment: ELISA; IgE inhibition: recombinant allergens (1 µg/ml) coated, pre-incubated with Nb32 (10 µg/ml) or Nb32ILZ (11.5 µg/ml) overnight at 4°C, then patients' sera 1:10; bound IgE detected with AKP-labelled anti-human-IgE antibody. The following applies: both partners purified.

Experiment [4] deals with T4, recombinant Cor a 1.0103 (hazel) (Corylus avellana, isoallergen Cor a …, UniProt Q08407, strain).
T4 construct: source: bought: Biomay AG (recombinant)
Described as above. The following applies: both partners purified.

The target in experiment [5] is T3, recombinant Aln g 1.0101 (alder). Kind of experiment: SPR; Biacore T200, CM5 chip, 25°C; allergens amine-coupled; nanobodies injected in HBS-EP+ (Nb32ILZ 0.172-44 nM, Nb32 0.313-40 nM), multicycle kinetics, 30 min dissociation; printed kd from the 1:1 (Langmuir) binding model for both nanobodies. The following applies: both partners purified. (Surface plasmon resonance follows binding to a sensor surface in real time, without labels.)

The target in experiment [6] is T5, recombinant Bet v 1.0101 (birch) (birch).
T5 construct: major birch pollen allergen Bet v 1, isoallergen Bet v 1.0101; also called major birch pollen allergen; source: bought: Biomay AG (recombinant)
T5 chain: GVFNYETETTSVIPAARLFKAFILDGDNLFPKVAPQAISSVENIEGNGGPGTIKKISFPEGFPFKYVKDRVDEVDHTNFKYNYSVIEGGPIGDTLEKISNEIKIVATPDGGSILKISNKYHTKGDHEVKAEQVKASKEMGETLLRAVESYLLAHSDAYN
The experiment is described as above. The following applies: both partners purified.

The target in experiment [7] is T4, recombinant Cor a 1.0103 (hazel). The experiment is described as above. The following applies: both partners purified.
Experiment [8] addresses T6, natural Cor a 1 in hazel pollen extract (hazel (endogenous in hazel pollen)).
T6 construct: natural Cor a 1 of hazel pollen extract; Unpurified extract; band at around 17 kDa on blots; source: endogenous, hazel pollen (Allergon) extract
T6 chain: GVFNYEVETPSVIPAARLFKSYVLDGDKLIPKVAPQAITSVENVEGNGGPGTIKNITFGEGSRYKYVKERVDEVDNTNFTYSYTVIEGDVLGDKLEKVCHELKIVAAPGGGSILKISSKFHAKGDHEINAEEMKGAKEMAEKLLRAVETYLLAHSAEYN
Kind of experiment: far-Western, overlay or dot blot; pollen extracts separated by reducing SDS-PAGE, blotted on nitrocellulose; strips incubated with Nb32 (1 µg/ml) or Nb32ILZ (1.15 µg/ml) in Buffer A at 4°C overnight; detected with HRP-labelled anti-HA-tag antibody. As to conditions: one partner purified.

B1: Bet v 1-specific nanobody monomer Nb32 (VHH)
VHH: QVQLVESGGGSVQSGGSLRLSCAASGYTYSSYCMAWFRQAPGKKREGVAAIDTDGSTDYADSVKGRFAISQDNAKNTLYLQMNSLKPEDTAMYYCAAYGGSCRRGTGSGYWGQGTQVTVSS
notes: as the chain of m1 (Nb32ILZ) without the ILZ domain: Nb32 VHH and hinge; also called Nb32 monomer; not shown: HA, C-terminal, kept; His6, C-terminal, kept
With B1, the binding result in experiment [1] is on record as “binds”; in experiment [2] it was “no binding”; in experiment [8], “binds”. For the same molecule, the “percent inhibition of patients' IgE binding” value in experiment [3] stood at 65%; in experiment [4], 48%. The koff (commonly the first-order rate constant of dissociation) in experiment [5] was 0.0001 s⁻¹; in experiment [6], 9.9e-05 s⁻¹; in experiment [7], 0.00021 s⁻¹.
